# From patent US20140227729
# T1: Ndm, two-subunit N-demethylase component purified from Pseudomonas putida CBB5 (UniProt H9N289)
# T1 sequence 1: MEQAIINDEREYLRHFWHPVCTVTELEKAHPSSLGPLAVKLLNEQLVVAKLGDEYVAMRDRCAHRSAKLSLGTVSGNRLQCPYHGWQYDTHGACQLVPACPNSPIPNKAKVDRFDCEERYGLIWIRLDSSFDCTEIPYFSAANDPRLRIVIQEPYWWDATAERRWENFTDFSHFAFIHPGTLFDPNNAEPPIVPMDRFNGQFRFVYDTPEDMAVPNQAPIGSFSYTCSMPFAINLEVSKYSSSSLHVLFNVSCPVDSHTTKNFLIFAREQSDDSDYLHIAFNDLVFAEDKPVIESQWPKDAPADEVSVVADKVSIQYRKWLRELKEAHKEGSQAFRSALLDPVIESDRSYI
# T1 sequence 2: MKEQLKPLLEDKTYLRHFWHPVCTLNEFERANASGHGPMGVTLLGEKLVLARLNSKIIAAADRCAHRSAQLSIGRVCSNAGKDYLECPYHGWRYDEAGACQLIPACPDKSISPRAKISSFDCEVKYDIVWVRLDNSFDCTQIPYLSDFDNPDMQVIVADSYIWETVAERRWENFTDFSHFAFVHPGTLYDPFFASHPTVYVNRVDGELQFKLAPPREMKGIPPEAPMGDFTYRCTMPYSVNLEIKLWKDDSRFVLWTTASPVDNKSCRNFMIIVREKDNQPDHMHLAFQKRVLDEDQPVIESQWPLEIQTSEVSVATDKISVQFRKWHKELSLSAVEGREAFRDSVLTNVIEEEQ
# T2: NdmA-His6, H9N289
# T2 chain: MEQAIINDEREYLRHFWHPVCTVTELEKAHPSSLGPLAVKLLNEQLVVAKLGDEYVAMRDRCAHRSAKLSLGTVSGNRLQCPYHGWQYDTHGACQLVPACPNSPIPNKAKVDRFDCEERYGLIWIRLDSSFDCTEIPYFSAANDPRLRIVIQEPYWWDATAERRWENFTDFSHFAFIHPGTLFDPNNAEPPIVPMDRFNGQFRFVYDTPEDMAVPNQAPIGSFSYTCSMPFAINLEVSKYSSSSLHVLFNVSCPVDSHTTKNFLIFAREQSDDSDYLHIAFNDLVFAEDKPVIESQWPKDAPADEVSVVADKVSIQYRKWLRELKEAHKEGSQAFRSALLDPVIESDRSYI
# T3: NdmB-His6, H9N290
# T3 chain: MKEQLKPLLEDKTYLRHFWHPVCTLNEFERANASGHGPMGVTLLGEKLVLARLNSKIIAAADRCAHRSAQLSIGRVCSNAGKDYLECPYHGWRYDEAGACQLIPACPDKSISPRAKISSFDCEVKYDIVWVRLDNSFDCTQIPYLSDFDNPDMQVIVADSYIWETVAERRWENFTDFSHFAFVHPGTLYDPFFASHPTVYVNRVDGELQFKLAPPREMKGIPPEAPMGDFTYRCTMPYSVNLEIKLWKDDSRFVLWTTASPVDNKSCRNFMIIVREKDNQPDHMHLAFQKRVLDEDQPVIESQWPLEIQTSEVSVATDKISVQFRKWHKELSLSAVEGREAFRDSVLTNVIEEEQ
# T4: Ndm, two-subunit N-demethylase component purified from Pseudomonas putida CBB5, H9N289
# T4 chain 1: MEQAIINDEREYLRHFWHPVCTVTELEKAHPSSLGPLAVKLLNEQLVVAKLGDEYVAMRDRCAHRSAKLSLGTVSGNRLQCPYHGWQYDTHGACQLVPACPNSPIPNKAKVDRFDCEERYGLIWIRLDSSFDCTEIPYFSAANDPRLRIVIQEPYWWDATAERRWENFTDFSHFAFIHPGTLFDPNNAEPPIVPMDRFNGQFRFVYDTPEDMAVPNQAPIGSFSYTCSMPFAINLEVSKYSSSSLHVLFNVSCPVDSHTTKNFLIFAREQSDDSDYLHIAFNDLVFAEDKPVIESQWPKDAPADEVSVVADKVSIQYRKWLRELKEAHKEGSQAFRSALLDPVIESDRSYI
# T4 chain 2: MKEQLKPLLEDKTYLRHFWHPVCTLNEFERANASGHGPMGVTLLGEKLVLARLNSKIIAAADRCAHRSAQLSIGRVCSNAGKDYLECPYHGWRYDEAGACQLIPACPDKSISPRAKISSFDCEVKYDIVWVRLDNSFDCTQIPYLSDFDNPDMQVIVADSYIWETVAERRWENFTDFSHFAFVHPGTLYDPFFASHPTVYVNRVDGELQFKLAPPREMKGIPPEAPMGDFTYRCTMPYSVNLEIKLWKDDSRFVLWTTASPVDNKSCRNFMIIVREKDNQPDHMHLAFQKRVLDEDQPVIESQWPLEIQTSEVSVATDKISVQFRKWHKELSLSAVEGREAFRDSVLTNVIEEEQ
# Experiments:
# [1] = biological target: T1, Ndm, two-subunit N-demethylase component purified from Pseudomonas putida CBB5
# [2] = biological target: T2, NdmA-His6, H9N289
# [3] = biological target: T3, NdmB-His6, H9N290
# [4] = biological target: T4, Ndm, two-subunit N-demethylase …
molecule,measurement,setting,value
"Ccr, reductase component with cytochrome c reductase activity (partially purified fraction from Pseudomonas putida CBB5)",N-demethylase activity,[1],No N-demethylase activity was observed when purified Ndm was assayed without the Ccr fraction
His6-NdmD (protein) HHHHHHSSGLVPRGSHMNKLDVNQWFPIATTEDLPKRHVFHATLLGQEMAIWRDDSGSVNAWENRCPHRGLNTLGANTGNELRCQYHGWTYESGTGGCTFVPAHRDAPPPNAARVNTFPVREKHGFIWTTLGQPPGEPISILDDAQLVNAVKTNLHSVVIDADIDGVVSVLRQNLSAFIDVFGAASAEDLHLKSMLQDRGILVTRSGSIAIHFYMQRSTISKCVVHAQVLTPGRPGYELQKNYSYAMNVIRRAAEAVATDLISITDISDQTIEKLEVVRENMTKAPPTHYICEVVTRTQETGDINSYWLKPIGYPLPAFSPGMHISITTPEGSIRQYSLVNGPDERESFIIGVKKEIGSRGGSRSMHEDVKVGTQLKVTLPRNGFPLVQTRKHPILVAGGIGITPILCMAGALDQQGSSYEIHYFARAFEHVPFQDRLTALGDRLNVHLGLGPDETRAKLPDIMEIHNAQDVDVYTCGPQPMIETVSAVALAHGIAEESIRFEFFSKKNDVPVSDEEYEVELKKTGQIFTVSPGSTLLQACLDNDVRIEASCEQGVCGTCITPVVSGDLEHHDTYLSKKERESGKWIMPCVSRCKSKKIVLDL,N-demethylation of caffeine to theobromine (HPLC),[2],"when NdmA-His6 was incubated with His6-NdmD, caffeine, NADH, and exogenous Fe^2+, caffeine was stoichiometrically demethylated at N1 to theobromine"
same,N-demethylation of theobromine to 7-methylxanthine (HPLC),[3],"NdmB-His6 with His6-NdmD, theobromine, NADH, and Fe^2+ resulted in stoichiometric demethylation at N3 of theobromine to 7-methylxanthine"
Reductase of Pseudomonas sp. 9816 naphthalene dioxygenase (protein) MELLIQPNNRIIPFSAGANLLEVLRENGVAISYSCLSGRCGTCRCRVIDGSVIDSGAENGQSNLTDKQYVLACQSVLTGNCAIEVPEADEIVTHPARIIKGTVVAVESPTHDIRRLRVRLSKPFEFSPGQYATLQFSPEHARPYSMAGLPDDQEMEFHIRKVPGGRVTEYVFEHVREGTSIKLSGPLGTAYLRQKHTGPMLCVGGGTGLAPVLSIVRGALKSGMTNPILLYFGVRSQQDLYDAERLHKLAADHPQLTVHTVIATGPINEGQRAGLITDVIEKDILSLAGWRAYLCGAPAMVEALCTVTKHLGISPEHIYADAFYPGGI,N-demethylase activity,[4],Ndm did not function in the presence of the reductase and ferredoxin components of Pseudomonas sp. 9816 naphthalene dioxygenase
Spinach ferredoxin reductase (protein) QIASDVEAPPPAPAKVEKHSKKMEEGITVNKFKPKTPYVGRCLLNTKITGDDAPGETWHMVFSHEGEIPYREGQSVGVIPDGEDKNGKPHKLRLYSIASSALGDFGDAKSVSLCVKRLIYTNDAGETIKGVCSNFLCDLKPGAEVKLTGPVGKEMLMPKDPNATIIMLGTGTGIAPFRSFLWKMFFEKHDDYKFNGLAWLFLGVPTSSSLLYKEEFEKMKEKAPDNFRLDFAVSREQTNEKGEKMYIQTRMAQYAVELWEMLKKDNTYFYMCGLKGMEKGIDDIMVSLAAAEGIDWIEYKRQLKKAEQWNVEVY,N-demethylase activity,[4],Ndm did not couple with ferredoxin reductase plus ferredoxin from spinach
